Measurements as given in US20250215403A1, “Compositions and Methods for Cardiac Tissue Regeneration” (Temple University - Of The Commonwealth System Of Higher …, priority 2022, published 2025).

What was measured:
cardiomyocytes (CM) = experiment: CM division lineage tracing in α-MHC-MADM mice post-MI; format: in vivo, mouse
Method: (§1) All animal procedures were performed under protocols approved by the Temple University Animal Care and Use Committee. Male and female C57BL6 mice were used. Different modRNAs (100 μg/heart) were injected directly into the myocardium in open chest surgery. Three to ten animals used for each experiment. For mice survival, C57BL6 mice (10-12-weeks-old) treated with Luc or PSAT1 modRNAs (n=10) post induction of MI and were followed for the indicated time. Deaths were monitored and documented over time. Tamoxifen-inducible CM-restricted MADM mice (α-MHC-MADM mice) mice were generated by crossing MADM mice (Jackson laboratory) to […].^Tg(Myh6-cre/Esr1*) 1Jmk/J (Cat no. 005657) mice to get α-MHC-MADM mice (Yuko, A. E., et al., 2021, Redox Biology, 47:102162). Tamoxifen (Sigma-Aldrich) was dissolved in sesame oil at 10 mg/ml as stock solution. To induce Cre activation, tamoxifen was administered to mice by intraperitoneal (IP) injection five times (48 h interval between administrations) at 40 mg/kg body weight for adult mice (Yuko, A. E., et al., 2021, Redox Biology, 47:102162). The tissues were harvested at mentioned time for analysis.
To analyze the cardiomyocyte division in vivo post-MI, cardiomyocyte specific mosaic analysis with double markers (MADM) mice, generated as described previously, were used (Yuko, A. E., et al., 2021, Redox Biology, 47:102162). The CM-specific transgenic mice were generated by crossing MADM mice (Jackson laboratory) to B6.FVB (129)-A1cf.^Tg(Myh6-cre/Esr1*) 1 Jmk/J (Cat no. 005657) mice to get α-MHC-MADM mice. In the MADM system, because of interchromosomal Cre-loxP recombination after S phase of the cell cycle, the daughter cells will get labeled (single colored) with either GFP (Green) or RFP (Red). The MADM single-labeling can only be attained by end of the cell cycle through cytokinesis. The inducible MADM system warrants temporal control of recombination and offers direct evidence for cell division. […]

[1] = Long-term survival of mice post-MI; format: in vivo, mouse; details: Luc vs PSAT1 modRNA
Method: as §1

PSAT1 = PSAT1 protein expression in mouse myocardium post-MI after modRNA delivery; format: in vivo; details: 100 μg modRNA into myocardium post-MI; within 24 hours
Method: In vivo transfection of modRNA was done as described previously in a recent method paper (Magadum A., et al., Circulation. 2020, 141 (15): 1249-1265; Sultana N., et al., Mol Ther, 2017, 25 (6): 1306-1315) using sucrose citrate buffer containing 10 μl of sucrose in nuclease-free water (0.3 g/ml), 10 μl of citrate (0.1M pH-7; Sigma) mixed with 10 μl of different concentrations of modRNA in saline to a total volume of 30 μl. Immediately after LAD ligation, mice received an intra-myocardial injection of modRNA (100 μg) in total volume of 30 μL at 3 different sites (mid-anterior×2 places and apical anterior) in the peri-infarct area (Magadum A., et al., Circulation. 2020, 141 (15): 1249-1265; Magadum, A., et al., 2021, Advanced Science, 9:2004661). For in vitro transfection, RNAiMAX transfection reagent (Life Technologies) was used according to manufacturer's recommendation (Magadum A., et al., Circulation. 2020, 141 (15): 1249-1265; Sultana N., et al., Mol Ther, 2017, 25 (6): 1306-1315).
All surgical and experimental procedures with mice were performed in accordance with protocols approved by Institutional Animal Care and Use Committees at Temple University Animal Care and Use Committee (IACUC). C57BL6 or CM-specific MADM mice (8-12-weeks-old) were anesthetized with isoflurane. […] This ratio was calculated as the heart tissue weight relative to the mouse total body weight in grams (g). […]

B1: PSAT1 modRNA: modified mRNA with N1-methylpseudouridine, transcribed in vitro, encoding phosphoserine aminotransferase 1 (ORF SEQ ID NO: 1, RNA SEQ ID NO: 2) (nucleic acid)
chain: AUGGAAGCCACCAAGCAAGUGGUUAACUUUGGGCCCGGGCCUGCCAAGCUGCCACACUCGGUAUUGUUGGAGAUCCAGAAGCAGCUACUAGACUACAGAGGACUCGGCAUCAGUGUGCUCGAAAUGAGUCACAGGUCAUCAGAUUUUGCCAAGAUUAUUGGCAAUACAGAGAAUCUUGUGAGGGAAUUGCUAGCUGUUCCCAACAACUACAAGGUGAUCUUUGUACAAGGAGGUGGGUCUGGCCAGUUCAGUGCUGUCCCCUUAAAUCUGAUUGGCCUGAAAGCUGGAAGGAGUGCUGACUACGUGGUGACCGGAGCUUGGUCAGCUAAGGCUGCGGAAGAAGCCAAGAAGUUUGGAACGGUGAACAUUGUCCACCCUAAACUUGGAAGUUACACAAAAAUUCCAGACCCAAGCACCUGGAACCUCAACCCGGACGCCUCCUAUGUAUACUUCUGUGCAAACGAGACUGUGCACGGGGUGGAGUUUGACUUCGUACCUGACGUCAAGGGAGCGGUGCUGGUCUGUGACAUGUCCUCAAACUUCUUAUCCAGGCCGGUGGAUGUUUCCAAGUUUGGUGUGAUUUUCGCUGGUGCUCAGAAGAAUGUUGGCUCUGCCGGGGUGACGGUGGUGAUUGUCCGGGAUGACCUGCUGGGGUUCUCGCUCAGAGAGUGCCCAUCAGUCCUUGACUACAAAGUGCAGGCUGGGAACAACUCUUUGUAUAACACACCUCCGUGCUUCAGCAUCUACGUCAUGGGCAUGGUCCUGGAAUGGAUCAAGAACAACGGCGGGGCCGCAGCCAUGGAGAAGCUCAGCUCCAUCAAAUCCCAAAUGAUUUAUGAGAUCAUUGAUAAUUCUCAAGGAUUUUAUGUAUGCCCAGUGGAGCGCCAGAAUAGAAGCAGGAUGAACAUCCCAUUUCGCAUUGGCAACGCCAAAGGAGACGAAGCUUUGGAAAAGCGGUUUCUUGACAAGGCGGUAGAACUCAACAUGAUCUCCUUGAAGGGGCACAGGUCAGUGGGAGGCAUUCGUGCCUCUCUGUAUAACGCUGUCACAACCGAAGACGUUGAGAAGCUGGCGGCCUUCAUGAAGAAUUUCUUGGAGAUGCAUCAGCUGUGA
modifications: N1-methylpseudouridine
With B1 the “location of the increase in single color CMs in the heart” value (cardiomyocytes (CM); 1-month post-MI) was “mainly in the infarct border zone”, the “% single color (green or red positive) CMs compared to total labeled CMs” value (cardiomyocytes (CM); 1-month post-MI, compared to Luc modRNA) was “increased” and the “nucleation of the majority of single color CMs” value (cardiomyocytes (CM); 28 days post-MI) was “mononucleated”. The mice survival [1] was “significantly improved” and the “PSAT1 protein expression in mouse myocardium” value (PSAT1) was “robust”.
